Data published in paper PMC5890176.

Key:
[1] = molecular target: HU of Streptococcus pneumoniae (SpnHU) (Streptococcus pneumoniae R6); assay: cross-linking; 0.1% glutaraldehyde, room temperature, 30 min, 5 mM Tris-HCl pH 8.0, 25 mM KCl, 25% glycerol, 0.25 mM EDTA, 0.25 mM DTT; SDS-PAGE (15%), Coomassie; all tested concentrations
[2] = test system: SpnHU (HU, histone-like protein) (Streptococcus pneumoniae R6); assay: EMSA (agarose); conditions: 2 nM DNA, 10 mM Tris-HCl pH 8.0, 50 mM KCl, 0.05% Brij 58, 0.01 mg/ml BSA, 5% glycerol, 0.01 mM EDTA, 0.01 mM DTT, room temperature 20 min, 0.5% agarose in TBE

With “HU of Streptococcus pneumoniae (SpnHU) (natural protein)” the stoichiometry N [1] was 2.
With pBR322 linear (PstI) the binding signal ([2]; SpnHU concentration required for shift (8-fold more than supercoiled)) was 1.6 µM.
With pBR322 nicked (Nt.BstNBI) the binding signal ([2]; SpnHU concentration required for shift (16-fold more than supercoiled), nicked with Nt.BstNBI) was 3.2 µM.
In the case of pBR322 supercoiled, the binding signal ([2]; SpnHU concentration at which shift seen) is reported as 0.2 µM.
